The results in this text go back to PMC12062221.

Experiment [1] addresses human histone (H3-H4)2 tetramer (human) (UniProt P68431). The experiment can be described thus: MST.
Experiment [2] concerns the target fluorescently labeled human H2a(G129C)-H2b dimer (human) (UniProt P04908). The experiment can be described thus: MST.

In turn, “αSyn(1-103) (from UniProt P37840 1-103) (domain or fragment)” registered a dissociation constant (Kd) in experiment [1] of 107 nM.

“αSyn(1-131) (from UniProt P37840 1-131) (domain or fragment)”: the Kd in experiment [2] came to 32.4 µM.

In experiment [2], “αSyn(121-140) peptide (from UniProt P37840 121-140)” returned a KD of one of two binding sites of 0.5 µM and a KD of the other of two binding sites of 2.6 µM.

As usually defined, the Kd is a measure of binding affinity in units of concentration. A low value points to a tighter complex.
